In experiment [1] the target is T1, hen-egg white lysozyme (hen, UniProt P00698 19-147).
T1 construct: also called HEWL
Kind of experiment: yeast surface display of scFv, 240 nM lysozyme.

The target in experiment [2] is T1, hen-egg white lysozyme. Kind of experiment: surface plasmon resonance, Fab. Background: Surface plasmon resonance follows binding to a sensor surface in real time, without labels.
Experiment [3] has as its target T1, hen-egg white lysozyme. Nature of the experiment: bilayer interferometry, IgG1 loaded on the sensor at 1 ug/mL, lysozyme at 1000, 250, 100, 25 and 10 nM. The protocol:
FIGS. 5A-D present anti lysozyme antibody SDR-grafting: FIG. 5A. […] FIG. 5B. […] FIG. 5C. […] FIG. 5D. […] Lysozyme was at concentrations of […] and 1 μg/mL antibody was loaded onto the sensor.

Experiment [4] deals with T2, recombinant prostate-specific antigen (PSA) (human, UniProt P07288 25-261, limits assumed).
T2 construct: also called recombinant PSA; recombinantly produced PSA
Nature of the experiment: ELISA of the protein G purified antibody on recombinant PSA.

Experiment [5] concerns the target T2, recombinant prostate-specific antigen …. Nature of the experiment: immunoprecipitation with protein G after incubation with recombinant PSA; blot developed with a commercial anti-PSA antibody. The protocol: (§1) FIGS. 4A-E present anti-PSA clone 10 humanization: FIG. 4A. Four anti-PSA antibodies were expressed as chimeras and expression was measured through ELISA of the supernatant SEQ ID Nos.: 83/84, 85/86, 87/88, 81/82). […] FIG. 4B. Expression of five humanized designs for clone 10 was measured through ELISA of the supernatant. […] FIG. 4C. […] FIG. 4D. […] Membrane was developed with a commercial anti-PSA antibody. […] FIG. 4E.

Experiment [6] concerns the target T3, natively expressed PSA (supernatant of LNCaP cells) (human, UniProt P07288 25-261).
T3 construct: also called native PSA
Nature of the experiment: immunoprecipitation with protein G after overnight incubation with LNCaP supernatant; blot developed with a commercial anti-PSA antibody. The procedure: as §1

Usually Kd stands for the concentration at which binding is half-saturated.

Changes are numbered by the printed parent chain.

T1 sequence (P00698 19-147 limits assumed): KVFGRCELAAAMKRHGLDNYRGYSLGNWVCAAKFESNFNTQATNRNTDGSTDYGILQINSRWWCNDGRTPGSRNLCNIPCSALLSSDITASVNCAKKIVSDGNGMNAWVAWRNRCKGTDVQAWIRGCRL
T2 sequence (P07288 25-261 limits assumed): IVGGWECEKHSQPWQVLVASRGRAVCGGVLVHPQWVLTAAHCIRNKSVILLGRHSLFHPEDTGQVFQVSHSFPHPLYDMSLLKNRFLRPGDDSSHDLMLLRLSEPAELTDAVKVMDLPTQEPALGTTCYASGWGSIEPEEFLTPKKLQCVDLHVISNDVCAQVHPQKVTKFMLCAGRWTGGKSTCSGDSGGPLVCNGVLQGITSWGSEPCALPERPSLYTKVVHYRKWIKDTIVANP
T3 sequence (P07288 25-261 limits assumed): as above

B1: Anti-HEWL Design 6, scFv on yeast surface (scFv, V domains shown, not shown: large carriers; small tags and cut ends)
VH: EVQLVQSGAEVKKPGATVKISCKVSGYTFSTYWMEWVQQAPGKGLEWMGEVLPGSGSTYYAEKFQGRVTITADTSTDTAYMELSSLRSEDTAVYYCARGDGYFQHWGQGTLVTVSS
VL: EIVLTQSPDFQSVTPKEKVTITCRASQSISSNLHWYQQKPDQSPKLLIKYASQSFSGVPSRFSGSGSGTDFTLTINSLEAEDAATYYCHQSNSWPRTFGPGTKVDIK
notes: also called Des6 (scFv format)
As to B1, the binding result in experiment [1] was “binds”.

B2: Anti-HEWL Design 1, human Fab (Fab, V domains shown)
VH: B1 VH
VL: DIQMTQSPSSLSASVGDRVTITCRASQSISSNLNWYQQKPGKAPKLLIYYASSLQSGVPSRFSGSGSGTDFTLTISSLQPEDFATYYCQQSNSWPRTFGPGTKVDIKR
notes: The Fab heavy chain ends in a His tag; also called hαHEWL; design 1 (Fab)
The molecule B2 displayed a dissociation constant Kd in experiment [2] of 41.6 nM.

B3: Anti-HEWL Design 1, human IgG1 (antibody, V domains shown)
VH: B1 VH
VL: B2 VL
notes: also called Des 1; Des1
As for B3, binding in experiment [3] was characterised by a dissociation constant (Kd) of 11 nM.

B4: Anti-PSA Design 1 (humanized clone 10) (antibody, V domains shown)
VH: QVQLVQSGAEVKKPGSSVKVSCKASGYSFTDYNMNWVRQAPGQGLEWIGVISPDYGTPSYAQKFQGRVTITADESTSTAYMELSSLRSEDTAVYYCARGKGNYVVFAYWGQGTLVTVSS
VL: DIQMTQSPSSLSASVGDRVTITCKASQSVVNNVVWYQQKPGKAPKLLIYYASNRYSGVPSRFSGSGSGTDFTLTISSLQPEDFATYYCQQHYTSPLTFGPGTKVDIKR
notes: Full-length human IgG1/kappa chains; also called PSA1
On to B4, for which the binding result in experiment [4] is “binds”.

B5: Anti-PSA Design 3 (humanized clone 10) (antibody, V domains shown)
VH: B4 VH with Q1E, S16A, S17T, V20I, A24V, R38Q, Q43K, Q62E, E74T, S77D
VL: DIVMTQSPDSLAVSLGERATINCKASQSVVNNVVWYQQKPGQPPKLLIYYASNRYSGVPDRFSGSGSGTDFTLTISSLQAEDVAVYYCQQHYTSPLTFGPGTKVDIKR
notes: Full-length human IgG1/kappa chains; also called PSA3
As to B5, in experiment [4], the binding result is “binds”.

B6: Anti-PSA Design 4 (humanized clone 10) (antibody, V domains shown)
VH: QVQLQESGPGLVKPSETLSLTCTVSGYSFTDYNMNWIRQPPGKGLEWIGVISPDYGTPSYNPSLKSRVTISVDTSKNQFSLKLSSVTAADTAVYYCARGKGNYVVFAYWGQGTLVTVSS
VL: B4 VL with D70E
notes: Full-length human IgG1/kappa chains; also called PSA4
Consider B6, for which the binding result in experiment [5] and in experiment [6] was “binds” throughout.

B7: Anti-PSA Design 2 (humanized clone 10) (antibody, V domains shown)
VH: B4 VH
VL: DIVMTQTPLSLSVTPGQPASISCKASQSVVNNVVWYLQKPGQPPQLLIYYASNRYSGVPDRFSGSGSGTDFTLKISRVEAEDVGVYYCQQHYTSPLTFGPGTKVDIKR
notes: Full-length human IgG1/kappa chains; also called PSA2
In the case of B7, the binding result in experiment [4] is “binds”.

B8: Anti-PSA Design 5 (humanized clone 10) (antibody, V domains shown)
VH: B4 VH with Q1E, S16A, S17T, V20I, A24V, R38Q, Q43K, Q62E, E74T, S77D
VL: B4 VL with D70E
notes: Full-length human IgG1/kappa chains; also called PSA5
Turning to B8, the binding result in experiment [5] is listed as “binds”.

The record behind these values is patent publication US20250122311A1 (YEDA RESEARCH AND DEVELOPMENT, published 2025).
